# Article PMC6224091 (2018)
# B1: V5-Par6A (wild type) [not stated] / HA-Cdc42(G12V) [not stated] (parent complex)
# chain 1: MARPQRTPARSPDSIVEVKSKFDAEFRRFALPRASVSGFQEFSRLLRAVHQIPGLDVLLGYTDAHGDLLPLTNDDSLHRALASGPPPLRLLVQKRAEADSSGLAFASNSLQRRKKGLLLRPVAPLRTRPPLLISLPQDFRQVSSVIDVDLLPETHRRVRLHKHGSDRPLGFYIRDGMSVRVAPQGLERVPGIFISRLVRGGLAESTGLLAVSDEILEVNGIEVAGKTLDQVTDMMVANSHNLIVTVKPANQRNNVVRGASGRLTGPPSAGPGPAEPDSDDDSSDLVIENRQPPSSNGLSQGPPCWDLHPGCRHPGTRSSLPSLDDQEQASSGWGSRIRGDGSGFSL
# chain 2: not shown
# Variants of: B1
# Assay: co-immunoprecipitation (IP: GFP), quantified blot; HEK293T cells; HA-Cdc42(G12V) recovered in the GFP (YFP-Tuba) IP when co-expressed with the Par6A variant; n = 4; parent: 1; read off a plot
row,ratio to parent,Variant
1,~0.21,"chain 1 I133A, chain 1 S134A"
